According to patent publication US20210355235A1, “Compositions and Methods For Treating Cancer with Anti-Renalase antibodies and Anti-PD1 antibodies” (YALE UNIVERSITY, priority 2017, published 2021):
Numbering of substitutions follows the chain as printed. Where two headings read alike, the source gives them in different places. One block for each molecule: values may come before it.

Key:
HK-2 cells = assay: STAT phosphorylation in HK-2 cells treated with RNLS; format: cell-based, human
From the text: STAT3 binds to the promoter region of the RNLS gene and increases its expression (Sonawane et al., 2014 Biochemistry. 53(44):6878-6892).

MiaPaCa2 cells = assay: FACS cell cycle analysis with rRNLS; format: cell-based, human; details: 30 μg/ml
Description: For cell cycle analysis, cultured cells were dissociated using 10 mM EDTA, fixed with ice-cold 70% ethanol, digested with RNAse A, and stained with propidium iodide. Propidium staining was detected using a BD FACSCalibur flow cytometer (BD Biosciences, San Jose, Calif., USA), and analyzed using CellQuest software.

Panc1 cells = assay: western blot of p38 and STAT3 phosphorylation; format: cell-based, human
From the text: FIG. 27, comprising FIGS. 27A through 27E, is a series of images and charts showing the interaction between RNLS and STAT3, and the mechanistic model of inhibition by m28-RNLS. FIG. 27A is an image showing activation of STAT3 by RNLS in Panc1 cells; Panc1 cells in culture treated with either BSA or RNLS, and STAT3 phosphorylation assessed by western blot; p-Ser^727-STAT3: phosphorylation at serine 727, p-Y^705-STAT3: phosphorylation at tyrosine 705; representative study. FIG. 27B is a chart depicting the quantification of STAT3 phosphorylation with RNLS; signals normalized to total STAT3; n=3, *=P<0.05. […] FIG. 27D is a chart showing the quantification of STAT3 phosphorylation with m28-RNLS; signals normalized to GAPDH loading control; n=3, *=P<0.05. FIG. 27E depicts the proposed mechanistic model for antitumor activity of m28-RNLS.

[1] = system: A375.S2, MeWo, SkMel5 and SkMel28 cells; assay: survival of serum-starved melanoma cells, WST-1; format: cell-based, human; details: 30 ug/ml, 72 hrs
Description: (§1) Total cell number and percentage of live cells were assessed by trypan blue exclusion, and cells were counted using a BioRad TC10 automated cell counter. For additional studies, cell viability was determined using WST-1 reagent (Roche Diagnostics, Indianapolis, Ind., USA) according to the manufacturers' instruction. Absorbances were read using a microplate reader (Power Waves XS, BioTek Instruments, Winooski, Vt., USA).
RNLS-mediated signaling is anti-apoptotic, and protects normal cells exposed to toxic stress from apoptotic death (Wang et al., 2014 J Am Soc Nephrol.; Lee et al., 2013 J Am Soc Nephrol. 24:445-55). To explore if RNLS signaling favored the survival of cancer cells, either recombinant RNLS (rRNLS) or bovine serum albumin (BSA) was added to serum-starved melanoma cells (A375.S2, MeWo, SkMel5, and SkMel28) in culture, and cell viability was determined. […] The total cell number and percentage of live cells of those treated with RNLS were counted to determine if the apparent increase in proliferative rate was due an increase in cell proliferation or to a decrease in the rate of apoptosis.

[2] = system: renalase-1 and renalase-2; assay: renalase isoform specificity of the antibodies (ELISA / hybridoma screening); format: binding, human; details: renalase-1 vs renalase-2
Description: Peptides were used as immunogens. The peptides generated ranged from 9 to 21 amino acids and corresponded to regions of the renalase-1 and renalase-2 proteins. […] Each peptide was conjugated to the adjuvant KLH via the cysteine and used to immunize 6 rabbits. Antiserum collected from each animal was screened for anti-renalase antibody titer by ELISA assay using both the relevant peptide (BSA-conjugate) or full length renalase-1 or 2. The antisera were also tested for their ability to detect endogenous renalase in tissue lysates by western blot. Using these screening criteria the animals producing antibodies with the preferred characteristics were selected. In some examples and for some peptides, several animals produced antibodies with the required specificity. […] Polyclonal antibodies raised against all of the peptides were generated by purification of total IgG from terminal bleeds by protein G chromatography followed by further purification on peptide affinity chromatography. Further and using standard procedures, lymphocytes from the spleens of selected animals were fused to myeloma cells for hybridoma generation. The hybridoma supernatants were screened for binding to both the peptides against which they were raised and secondarily screened against whole renalase protein. Selected hybridomas were sub-cloned and expanded for antibody purification. The monoclonal antibodies were purified from conditioned hybridoma culture supernatant by protein A affinity chromatography.

[3] = system: PDACC (pancreatic ductal adenocarcinoma cells); assay: PDACC viability with anti-RNLS antibodies, WST-1; format: cell-based, human; details: 72 hrs
Description: FIG. 25, comprising FIGS. 25A through 25E, is a series of charts and images showing that inhibition of RNLS signaling is cytotoxic to cancer cells in vitro and in vivo. FIG. 25A is a chart showing relative cell viability following transient transfection of Panc1 cells using a RNLS-specific siRNA, or a non-specific control siRNA, and cell viability assayed 96 h later using the WST-1 reagent; n=6, ** indicates p<0.001. FIG. 25B is a chart showing relative cell viability when cells were treated with indicated antibodies for 72 hrs and cell viability determined using WST-1; m28-RNLS and m37-RNLS: monoclonal antibodies raised against RNLS peptide RP220, ab31291: Abcam polyclonal antibody raised against a partial sequence of RP-220; n=6, * indicates p<0.005. […] FIG. 25D is a chart showing tumor volume increase after athymic nude mice received subcutaneous injection of Panc1 cells transduced with RNLS shRNA (sh-RNLS) or control (sh-Control); tumor volume measured every […] for up to 30 days, n=6 each; * indicates p<0.05. FIG. 25E is chart showing tumor volume increase after nude mice were xenografted with BxPC3; tumor volume measured prior to treatment every 3-4 days with 2 mg/kg of either rabbit IgG as a negative control or with m28-RNLS, n=10, * indicates p<0.05.
Cell viability was assessed by trypan blue exclusion, and cells were counted using a BioRad TC10 automated counter.

melanoma cell lines = assay: melanoma cells in culture, viability / growth; format: cell-based, human
Description: as §1

B1: rRNLS: recombinant human RNLS (renalase) (protein, UniProt Q5VYX0 18-342, looked up)
Renalase: ALLRRQTSGPLYLAVWDKAEDSGGRMTTACSPHNPQCTADLGAQYITCTPHYAKKHQRFYDELLAYGVLRPLSSPIEGMVMKEGDCNFVAPQGISSIIKHYLKESGAEVYFRHRVTQINLRDDKWEVSKQTGSPEQFDLIVLTMPVPEILQLQGDITTLISECQRQQLEAVSYSSRYALGLFYEAGTKIDVPWAGQYITSNPCIRFVSIDNKKRNIESSEIGPSLVIHTTVPFGVTYLEHSIEDVQELVFQQLENILPGLPQPIATKCQKWRHSQVTNAAANCPGQMTLHHKPFLACGGDGFTQSNFDGCITSALCVLEALKNYI
STAT1 (HK-2 cells): unaffected | increase of STAT3 phosphorylation at serine 727 (p-Ser727-STAT3) (HK-2 cells): 2 fold | increase of STAT3 phosphorylation at tyrosine 705 (p-Y705-STAT3) (HK-2 cells): 4 fold | cell cycle progression compared to BSA (MiaPaCa2 cells): no effect on cell cycle progression | phosphorylated STAT3 (p-Ser727-STAT3 and p-Y705-STAT3) after RNLS (Panc1 cells): rapid increase | survival of serum-starved melanoma cells compared to BSA [1]: markedly increased the survival

renalase-type specificity [2]: specific for renalase-1
B2: 1F-26-1: anti-renalase monoclonal specific for renalase-1; heavy chain SEQ ID NO:25, light chain SEQ ID NO:26 (antibody)
heavy: METGLRWLLLVAVLKGVQCQSVKESEGGLFKPTDTLTLTCTVSGFSLSSYGVTWVRQAPGNGLEWIGLIGDRGTTFYASWAKSRSTITRNTNLNTVTLKMTRLTAADTATYFCARGSGYGARIWGPGTLVTVSSWQPKAPSVFPLAPCCGDTPSSTVTLGCLVKGYLPEPVTVTWNSGTLTNGVRTFPSVRQSSGLYSLSSVVSVTSSSQPVTCNVAHPATNTKVDKTVAPSTCSKPTCPPPELLGGPSVFIFPPKPKDTLMISRTPEVTCVVVDVSQDDPEVQFTWYINNEQVRTARPPLREQQFNSTIRVVSTLPIAHQDWLRGKEFKCKVHNKALPAPIEKTISKARGQPLEPKVYTMGPPREELSSRSVSLTCMINGFYPSDISVEWEKNGKAEDNYKTTPAVLDSDGSYFLYSKLSVPTSEWQRGDVFTCSVMHEALHNHYTQKSISRSPGK
light: MDTRAPTQLLGLLLLWLPGATFAQVLTQTPSPVSAAVGGTVTINCQSSQSVYKNNYLAWYQQKPGQPPKLLIYETSKLASGVPPRFSGSGSGTQFTLTISSVQCDDAATYYCQGGYSGVDFMAFGGGTEVVVKGDPVAPTVLIFPPSADLVATGTVTIVCVANKYFPDVTVTWEVDGTTQTTGIENSKTPQNSADCTYNLSSTLTLTSTQYNSHKEYTCKVTQGTTSVVQSFNRGDC
modifications: 1F-26-1 full length heavy chain amino acid; 1F-26-1 full length light chain amino acid

renalase-type specificity [2]: specific for renalase-1
B3: 1F-42-7: anti-renalase monoclonal specific for renalase-1; heavy chain SEQ ID NO:33, light chain SEQ ID NO:34 (antibody)
heavy: B2 heavy with S48T, S49T, F76Y, A81V, K82N, S83G, S133A
light: B2 light with V33M, V37L, S50T, K53N, A58S, A79S
modifications: 1F-42-7 full length heavy chain amino acid; 1F-42-7 full length light chain amino acid

renalase-type specificity [2]: specific for renalase-2
B4: 3A-5-2: anti-renalase monoclonal specific for renalase-2; heavy chain SEQ ID NO:41, light chain SEQ ID NO:42 (antibody)
heavy: METGLRWLLLVAVLKGVQCQSLEESGGRLVTPGTPLTLTCTVSGFSLNNYHIYWVRQAPGKGLEYIGIIFNGGTYYARWTKGRFTISKTSTTVDLKMTSLTTEDTATYFCARGDGIWGPGTLVTVSLGQPKAPSVFPLAPCCGDTPSSTVTLGCLVKGYLPEPVTVTWNSGTLTNGVRTFPSVRQSSGLYSLSSVVSVTSSSQPVTCNVAHPATNTKVDKTVAPSTCSKPTCPPPELLGGPSVFIFPPKPKDTLMISRTPEVTCVVVDVSQDDPEVQFTWYINNEQVRTARPPLREQQFNSTIRVVSTLPIAHQDWLRGKEFKCKVHNKALPAPIEKTISKARGQPLEPKVYTMGPPREELSSRSVSLTCMINGFYPSDISVEWEKNGKAEDNYKTTPAVLDSDGSYFLYSKLSVPTSEWQRGDVFTCSVMHEALHNHYTQKSISRSPGK
light: MDTRAPTQLLGLLLLWLPGATFAQVLTQTPASVSAAVGGTVTINCQASQSVFNNNYLAWYQQKPGQPPKRLIYSASTLASGVSSRFKGSGSGTEFTLTMSGVECDDAATYYCAGSFDCNSGDCVAFGGGTEVVVKGDPVAPTVLIFPPAADQVATGTVTIVCVANKYFPDVTVTWEVDGTTQTTGIENSKTPQNSADCTYNLSSTLTLTSTQYNSHKEYTCKVTQGTTSVVQSFNRGDC
modifications: 3A-5-2 full length heavy chain amino acid; 3A-5-2 full length light chain amino acid

renalase-type specificity [2]: recognize renalase-1 and renalase-2
B5: m37-RNLS: rabbit anti-renalase monoclonal raised against RP-220; heavy chain SEQ ID NO:17, light chain SEQ ID NO:18 (antibody)
heavy: METGLRWLLLVAVLKGVQCQSVEESGGRLVTPGGSLTLTCTVSGFSLSDYAIIWVRQAPGKGLEYIAIIGSSGDTFYATWAKGRFTISKTSTTVDLKMTSLTAADTATYFCAPRYAGTTDYHDAFDPWGPGTLVTVSSGQPKAPSVFPLAPCCGDTPSSTVTLGCLVKGYLPEPVTVTWNSGTLTNGVRTFPSVRQSSGLYSLSSVVSVTSSSQPVTCNVAHPATNTKVDKTVAPSTCSKPTCPPPELLGGPSVFIFPPKPKDTLMISRTPEVTCVVVDVSQDDPEVQFTWYINNEQVRTARPPLREQQFNSTIRVVSTLPIAHQDWLRGKEFKCKVHNKALPAPIEKTISKARGQPLEPKVYTMGPPREELSSRSVSLTCMINGFYPSDISVEWEKNGKAEDNYKTTPAVLDSDGSYFLYSKLSVPTSEWQRGDVFTCSVMHEALHNHYTQKSISRSPGK
light: MDTRAPTQLLGLLLLWLPGARCAEVVMTQTPASMEAPMGGTVTIKCQASQNIYNYLSWYQQKPGQPPKLLVYKASTLTSGVPSRFKGSGSGTQFTLTISDLECADAATYYCQINYSIYNHYNIIFGGGTEVVVKGDPVAPTVLIFPPSADLVATGTVTIVCVANKYFPDVTVTWEVDGTTQTTGIENSKTPQNSADCTYNLSSTLTLTSTQYNSHKEYTCKVTQGTTSVVQSFNRGDC
modifications: 1D-37-10 full length heavy chain amino acid; 1D-37-10 full length light chain amino acid
PDACC growth / viability [3]: inhibitory effects | melanoma cell viability / growth in culture (melanoma cell lines): decreased the viability of all (total of 5) melanoma cell lines tested | melanoma cell viability / growth in culture (melanoma cell lines; listed as 1D-37-10): inhibit melanoma cells in culture | melanoma cell viability / growth in culture (melanoma cell lines; listed as D-37-10): inhibit melanoma cell growth
